Laboratory results from PMC11370418.
pKd: −log10 of the molar value.

Tests used:
Assay in all cases: …
[1] = target: DDIT3-GS-DDIT3 synthetic AD (human)
[2] = target: MYB-GS-MYB synthetic AD (human)
[3] = target: monomeric enhanced green fluorescent protein (meGFP)

| fold change of Kd against single-site DDIT3 [1] [fold] | fold change of Kd against single-site MYB [2] [fold] | pKd [3] | Substance |
| --- | --- | --- | --- |
| < 1.1 | < 1.1 |  | P300 KIX domain (domain or fragment) |
|  |  | < 4.00 | TFIID domain TAF12 (from UniProt Q16514 1-161) (natural protein) |
